In publication PMC6336717:

Legend:
[1] = target: C3b (human) (UniProt P01024); assay: ELISA; competition: C3b coated on the plate; FH 25 nM and WT Sbi-III-IV 1,000 nM with a concentration series of FHRs, FH19-20 or FHR-1 1-2; 1 h 37°C, PBST-2% BSA; FH bound detected with OX-24
[2] = target: C3b (human) (UniProt P01024); assay: ELISA; competition: C3b coated on the plate (0.25 ug/well); FH 25 nM with a concentration series of FHRs, FH19-20 or FHR-1 1-2, no Sbi; 1 h 37°C, PBST-2% BSA; FH bound detected with OX-24

Sequence of factor H-related protein 1 (FHR-1), recombinant (Q03591 19-330): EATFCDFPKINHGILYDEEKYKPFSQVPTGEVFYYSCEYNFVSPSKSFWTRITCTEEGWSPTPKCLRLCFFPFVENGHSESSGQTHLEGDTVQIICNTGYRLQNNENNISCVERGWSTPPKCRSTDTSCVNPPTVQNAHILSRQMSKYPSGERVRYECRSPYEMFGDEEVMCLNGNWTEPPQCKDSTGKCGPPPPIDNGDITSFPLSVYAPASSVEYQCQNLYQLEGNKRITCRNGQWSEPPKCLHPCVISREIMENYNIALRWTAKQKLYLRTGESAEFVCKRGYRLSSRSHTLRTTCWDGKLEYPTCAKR

factor H-related protein 1 (FHR-1), recombinant (from UniProt Q03591 19-330) (natural protein)
percent residual FH bound to C3b at the highest FHR-1 concentration, with Sbi-III-IV WT [1]: 0% | percent residual FH bound to C3b at the lowest FHR-1 concentration, with Sbi-III-IV WT [1]: 25% | percent residual FH bound to C3b at the highest FHR-1 concentration [2]: 30% | percent residual FH bound to C3b at the lowest FHR-1 concentration [2]: 70%
